B1: THSC20.HVTR04 (IgG) (antibody, V domains shown)
VH: QVQLVESGGGVVQPGRSLRLSCAASGFTFSNYAIHWVRQAPGKGLEWVAVVSYDGSNKYYAESVKGRFTISRDNSKNTLSLQMISLRPEDTAVYYCASVADTAMVPEWYFDLWGQGTMVTVSS
VL: QSVLTQPRSVSGSPGQSVTISCTGTSSDVGAYNYVSWYQQHPGKAPKLMIYDVSARPSGVPDRFSGSKSGNTASLTISGLQAEDEADYYCCSYAGSWVFGGGTKLTVL
B2: THSC20.HVTR26 (IgG) (antibody, V domains shown)
VH: EVQLVESGGGLVQPGGSLRLSCAASGFTVSSNYMSWVRQAPGKGLEWVSAIYSGDSTYYADSVKGRFTISRHNPKNTLYLQMNSLRAEDTAVYYCARLVGALTNIVVSGDGGAFDIWGQGTMVTVSS
VL: SYELTQPASVSGSPGQSITISCTGTSSDVGSYNLVSWYQQHPGKAPKLMIYEVSKRPSGVSNRFSGSKSGNTASLTISGLQAEDEVDYYCCSYAGSSTWVFGGGTKLTVL

Tests used:
[1] = target: T1, biotinylated avi-tagged SARS-CoV-2 (Wuhan) receptor binding domain (RBD) (SARS-CoV-2 (Wuhan strain), UniProt P0DTC2 319-541); assay: BLI
[2] = target: T1, biotinylated avi-tagged SARS-CoV-2 …; assay: BLI; remark: listed apart in the source

Binder | koff [1] | Kd [2]
B1 | 9.15e-05 s⁻¹ | –
B2 | 0.000131 s⁻¹ | 0.255 nM
